Test results published in article PMC4691890 (2015).

Biological target: horse CytC K87W (horse, UniProt P00004 1-105, K87W)
Test: ITC

- Ka: 1.24e+06 M⁻¹
B1: full-length human Apaf-1 (residues 1–1248) (natural protein)
chain: MDAKARNCLLQHREALEKDIKTSYIMDHMISDGFLTISEEEKVRNEPTQQQRAAMLIKMILKKDNDSYVSFYNALLHEGYKDLAALLHDGIPVVSSSSGKDSVSGITSYVRTVLCEGGVPQRPVVFVTRKKLVNAIQQKLSKLKGEPGWVTIHGMAGCGKSVLAAEAVRDHSLLEGCFPGGVHWVSVGKQDKSGLLMKLQNLCTRLDQDESFSQRLPLNIEEAKDRLRILMLRKHPRSLLILDDVWDSWVLKAFDSQCQILLTTRDKSVTDSVMGPKYVVPVESSLGKEKGLEILSLFVNMKKADLPEQAHSIIKECKGSPLVVSLIGALLRDFPNRWEYYLKQLQNKQFKRIRKSSSYDYEALDEAMSISVEMLREDIKDYYTDLSILQKDVKVPTKVLCILWDMETEEVEDILQEFVNKSLLFCDRNGKSFRYYLHDLQVDFLTEKNCSQLQDLHKKIITQFQRYHQPHTLSPDQEDCMYWYNFLAYHMASAKMHKELCALMFSLDWIKAKTELVGPAHLIHEFVEYRHILDEKDCAVSENFQEFLSLNGHLLGRQPFPNIVQLGLCEPETSEVYQQAKLQAKQEVDNGMLYLEWINKKNITNLSRLVVRPHTDAVYHACFSEDGQRIASCGADKTLQVFKAETGEKLLEIKAHEDEVLCCAFSTDDRFIATCSVDKKVKIWNSMTGELVHTYDEHSEQVNCCHFTNSSHHLLLATGSSDCFLKLWDLNQKECRNTMFGHTNSVNHCRFSPDDKLLASCSADGTLKLWDATSANERKSINVKQFFLNLEDPQEDMEVIVKCCSWSADGARIMVAAKNKIFLFDIHTSGLLGEIHTGHHSTIQYCDFSPQNHLAVVALSQYCVELWNTDSRSKVADCRGHLSWVHGVMFSPDGSSFLTSSDDQTIRLWETKKVCKNSAVMLKQEVDVVFQENEVMVLAVDHIRRLQLINGRTGQIDYLTEAQVSCCCLSPHLQYIAFGDENGAIEILELVNNRIFQSRFQHKKTVWHIQFTADEKTLISSSDDAEIQVWNWQLDKCIFLRGHQETVKDFRLLKNSRLLSWSFDGTVKVWNIITGNKEKDFVCHQGTVLSCDISHDATKFSSTSADKTAKIWSFDLLLPLHELRGHNGCVRCSAFSVDSTLLATGDDNGEIRIWNVSNGELLHLCAPLSEEGAATHGGWVTDLCFSPDGKMLISAGGYIKWWNVVTGESSQTFYTNGTNLKKIHVSPDFKTYVTVDNLGILYILQTLE
